The target in series [1] is T1, KlAH (Kluyveromyces lactis, UniProt Q6CP22).
T1 construct: gene KLLA0_E08119g; isolated allophanate hydrolase (AH) part, N and C domains, N-terminal part of KlUA; recombinant; homodimer
As to the kind of experiment: glutamate dehydrogenase-coupled NADH assay of ammonium. In kind it is biochemical. To be noted: AH activity; 6 mM MgCl2, 20 mM KCl, pH 8.0; substrate as potassium salt; read-out: Km^1. From the text:
glutamate dehydrogenase-coupled NADH assay of ammonium on KlAH

Series [2] deals with the molecule itself. The series is described as follows: SEC; analytical gel filtration, Superose 6 HR column; 0.25 mg protein injected; 20 mM Tris/HCl pH 8.0, 200 mM NaCl; calibrated with standards of 29-669 kDa. In general terms: In gel filtration, larger molecules generally elute earlier.
Substrate in series [3]: NC(=O)NC(=O)O
The series is described as follows: glutamate dehydrogenase-coupled NADH assay of ammonium. It counts as biochemical, Kluyveromyces lactis. To be noted: AH activity, 6 mM MgCl2, 20 mM KCl, pH 8.0, substrate as potassium salt. An excerpt: (§1) glutamate dehydrogenase-coupled NADH assay of ammonium on KlUA

Substrate in series [4]: NC(N)=O
The series is described as above. It counts as biochemical, Kluyveromyces lactis. To be noted: overall UA activity, 5 mM ATP, 12.5 mM bicarbonate, 11 mM MgCl2, 20 mM KCl.
Excerpt: as §1

Where [5] appears, read: pH 8.0, mutation at AH dimer interface.

Usually Km stands for the concentration of substrate that gives half-maximal velocity. Take `NC(=O)NC(=O)O` [allophanate]: the Michaelis-Menten constant (Km) in series [1] turned out to be 432 ± 60 µM.

B1: Kluyveromyces lactis urea amidolyase, full length (enzyme, UniProt Q6CP22 1-1829, looked up)
chain: MESTLGWSVQDWLSFHSKSTPTKSLELLENLLKSQKPAPEDPAWISLIPVEDLHHQWNILQSKSNKEELPLYGVPIAVKDNIDYKGLPTTAACPSYLYQPTRDSYVVELLRDAGAVVIGKTNLDQFATGLVGTRSPYGKTPCVFNDKYVSGGSSAGSASVVGRGIVPLSLGTDTAGSGRVPAALNNLIGLKPTKGAFSCRGVVPACKSLDCVSVFALNLSDAEIAFKVMNKPDLLEDEYSREFPKNPISQYPKDLTIAIPKEVPWFGETENPKLYTKAVASLKNTGAKIVVVDFEPLLELARCLYEGAWVAERYCATRDFLATNPPESSLDETVVNIIKGAVKFDAADAFKFEYKRQGILQKVNLLLKDIDVLCVPTCPLNPKLEEVAQEPVLVNSRQGTWTNFVNLADLAALAVPSGFRSDGLPNGITLIGKKFSDYALLDLAKRFFSVAFPNNSRTYGKFVDRRITVEDELDGPSKDTLNGVKLAVVGAHLKGLPLHWQLQKCNATYLSSPKTSNNYKLYALPKVGPVLKPGLRRVNDGTGSQIQLEVYSVPYDRFGDFIAMVPEPLGIGSVELESGEWVKSFICEEFGYTQQGTVDITKFGGFKPYIEHIQVTEAQKKKPFETVLIANRGEIAVRIMKTLKRMGIKSVAVYSDPDKYSQHVTDADFSVALHGRTAAETYLDIDKIINAAKKTGAQAIIPGYGFLSENADFSDRCSQENIVFVGPSGDAIRKLGLKHSAREIAERAKVPLVPGSGLIKDAKEAKEVAKKLEYPVMVKSTAGGGGIGLQKVDSEDDIERVFETVQHQGKSYFGDAGVFMERFVNNARHVEIQMMGDGFGKAIAIGERDCSLQRRNQKVIEETPAPNLPEATRAKMRAASERLGSLLKYKCAGTVEFIYDEQRDEFYFLEVNARLQVEHPITEMVTGLDLVEWMLRIAANDSPDFDNTKIEVSGASIEARLYAENPVKDFRPSPGQLTSVSFPSWARVDTWVKKGTNVSAEYDPTLAKIIVHGKDRNDAIMKLNQALNETAVYGCITNIDYLRSIASSKMFKEAKVATKVLDSFDYKPCAFEVLAPGANTSVQDYPGRTGYWRIGVPPSGPMDSYSFRLANRVVGNNSKSPALEITLNGPKLLFHTETVIAVSGGTVSCTLNDAQIAQNEPIEVKRGDILSVGKVTVGCRAYLSIRGGIDVPEYLGSRSTFAMGNMGGYNGRILKLGDVLFLNQPELSVSSLPAPDFEPQAAPKSLLPTLSTNKDWKIGVTCGPHGSIDLFKEEYIEQFFNDKWKVHYNSNRFGVRLIGPKPKWARSDGGEAGLHPSNAHDYVYSLGAINFTGDEPVIITCDGPSLGGFVCQAVVAEAELWKVGQLTPGDTIQFVPLSYGVARQLKESQDKSIDNFEEGSLLELSDDKILPKYENPILAVLPKKSDLSPKVTYRQAGDRYILVEYGELEFDLNICYRINRLIHQVERHQTVGIVEMSQGVRSVLIEFDGSKINQKALLKCLIAYESEIQFDKNWNVKSKIFKLPMAFEDSKTLDCVTRYRETIRSEAPWLPNNVDFIADVNDIDRNDVKNMLYSAKFMVLGLGDVFLGSPCAVPLDPRHRYLGTKYNPSRTYTARGVVGIGGMYMCIYNAEGSPGGYQLVGRTITAWDKLVIGDHPIDHPWLLTPFDQVEFYPVTEEELEVIIEDNDNGKFKIDVEESIFDHKEYLAWINENIDSIVAFQEAQGGEKADEFARLIQVANAELKKSGDDKPQDVEEYPDDAELLYSEYTGRFWKPVAAVGDHVEAGDGVIIIEAMKTEMVVGATKSGKVYKILHKNGDMVEAGDLVAVIV
notes: urea amidolyase (AH domain followed by UC domain: BC, CT, BCCP) of Kluyveromyces lactis, gene amplified from the K. lactis genome; monomer 202 kDa; also called KlUA; full-length KlUA; source: expression and purification followed protocols reported previously [14,17]; purified
The term stoichiometry N denotes a count of units in the complex or per binding partner. As a reminder, the kcat is the number of substrate molecules converted per active site and unit of time at saturation. One may read the kcat/Km as the second-order rate constant that governs catalysis at low substrate concentration. Take B1: the “stoichiometry N” value in series [2] was 2. In series [3], the Km was found to be 360 ± 37 µM, the kcat came to 34.2 ± 0.683 s⁻¹ and the catalytic efficiency (kcat/Km) is 94900 ± 11700 M⁻¹ s⁻¹. In series [4] (pH 8.0), the Km worked out at 255 ± 18 µM, the kcat amounted to 13.9 ± 0.183 s⁻¹ and the specificity constant (kcat/Km) was found to be 54600 ± 4600 M⁻¹ s⁻¹.

B2: KlUA (Kluyveromyces lactis NRRL Y-1140; G559E/G572E) (protein)
chain: MESTLGWSVQDWLSFHSKSTPTKSLELLENLLKSQKPAPEDPAWISLIPVEDLHHQWNILQSKSNKEELPLYGVPIAVKDNIDYKGLPTTAACPSYLYQPTRDSYVVELLRDAGAVVIGKTNLDQFATGLVGTRSPYGKTPCVFNDKYVSGGSSAGSASVVGRGIVPLSLGTDTAGSGRVPAALNNLIGLKPTKGAFSCRGVVPACKSLDCVSVFALNLSDAEIAFKVMNKPDLLEDEYSREFPKNPISQYPKDLTIAIPKEVPWFGETENPKLYTKAVASLKNTGAKIVVVDFEPLLELARCLYEGAWVAERYCATRDFLATNPPESSLDETVVNIIKGAVKFDAADAFKFEYKRQGILQKVNLLLKDIDVLCVPTCPLNPKLEEVAQEPVLVNSRQGTWTNFVNLADLAALAVPSGFRSDGLPNGITLIGKKFSDYALLDLAKRFFSVAFPNNSRTYGKFVDRRITVEDELDGPSKDTLNGVKLAVVGAHLKGLPLHWQLQKCNATYLSSPKTSNNYKLYALPKVGPVLKPGLRRVNDGTGSQIQLEVYSVPYDRFEDFIAMVPEPLGIESVELESGEWVKSFICEEFGYTQQGTVDITKFGGFKPYIEHIQVTEAQKKKPFETVLIANRGEIAVRIMKTLKRMGIKSVAVYSDPDKYSQHVTDADFSVALHGRTAAETYLDIDKIINAAKKTGAQAIIPGYGFLSENADFSDRCSQENIVFVGPSGDAIRKLGLKHSAREIAERAKVPLVPGSGLIKDAKEAKEVAKKLEYPVMVKSTAGGGGIGLQKVDSEDDIERVFETVQHQGKSYFGDAGVFMERFVNNARHVEIQMMGDGFGKAIAIGERDCSLQRRNQKVIEETPAPNLPEATRAKMRAASERLGSLLKYKCAGTVEFIYDEQRDEFYFLEVNARLQVEHPITEMVTGLDLVEWMLRIAANDSPDFDNTKIEVSGASIEARLYAENPVKDFRPSPGQLTSVSFPSWARVDTWVKKGTNVSAEYDPTLAKIIVHGKDRNDAIMKLNQALNETAVYGCITNIDYLRSIASSKMFKEAKVATKVLDSFDYKPCAFEVLAPGANTSVQDYPGRTGYWRIGVPPSGPMDSYSFRLANRVVGNNSKSPALEITLNGPKLLFHTETVIAVSGGTVSCTLNDAQIAQNEPIEVKRGDILSVGKVTVGCRAYLSIRGGIDVPEYLGSRSTFAMGNMGGYNGRILKLGDVLFLNQPELSVSSLPAPDFEPQAAPKSLLPTLSTNKDWKIGVTCGPHGSIDLFKEEYIEQFFNDKWKVHYNSNRFGVRLIGPKPKWARSDGGEAGLHPSNAHDYVYSLGAINFTGDEPVIITCDGPSLGGFVCQAVVAEAELWKVGQLTPGDTIQFVPLSYGVARQLKESQDKSIDNFEEGSLLELSDDKILPKYENPILAVLPKKSDLSPKVTYRQAGDRYILVEYGELEFDLNICYRINRLIHQVERHQTVGIVEMSQGVRSVLIEFDGSKINQKALLKCLIAYESEIQFDKNWNVKSKIFKLPMAFEDSKTLDCVTRYRETIRSEAPWLPNNVDFIADVNDIDRNDVKNMLYSAKFMVLGLGDVFLGSPCAVPLDPRHRYLGTKYNPSRTYTARGVVGIGGMYMCIYNAEGSPGGYQLVGRTITAWDKLVIGDHPIDHPWLLTPFDQVEFYPVTEEELEVIIEDNDNGKFKIDVEESIFDHKEYLAWINENIDSIVAFQEAQGGEKADEFARLIQVANAELKKSGDDKPQDVEEYPDDAELLYSEYTGRFWKPVAAVGDHVEAGDGVIIIEAMKTEMVVGATKSGKVYKILHKNGDMVEAGDLVAVIV
notes: full-length enzyme, AH + UC domains; recombinant in E. coli BL21(DE3) Star (pET28A, nickel column); homodimer, monomer 202 kDa
B2: in series [3] (mutation at AH dimer interface), the Michaelis constant (Km) came to 1040 ± 183 µM, the turnover number (kcat) is 7.85 ± 0.367 s⁻¹ and the kcat/Km was determined as 7550 ± 1680 M⁻¹ s⁻¹. Also, in series [4] (setting [5]), the Km was determined as 361 ± 32 µM, the kcat stood at 3 ± 0.0533 s⁻¹ and the kcat/Km turned out to be 8320 ± 900 M⁻¹ s⁻¹.

B3: KlUAΔBCCP (Kluyveromyces lactis urea amidolyase residues 1-1741, BCCP domain removed) (domain or fragment, UniProt Q6CP22 1-1741, looked up)
chain: MESTLGWSVQDWLSFHSKSTPTKSLELLENLLKSQKPAPEDPAWISLIPVEDLHHQWNILQSKSNKEELPLYGVPIAVKDNIDYKGLPTTAACPSYLYQPTRDSYVVELLRDAGAVVIGKTNLDQFATGLVGTRSPYGKTPCVFNDKYVSGGSSAGSASVVGRGIVPLSLGTDTAGSGRVPAALNNLIGLKPTKGAFSCRGVVPACKSLDCVSVFALNLSDAEIAFKVMNKPDLLEDEYSREFPKNPISQYPKDLTIAIPKEVPWFGETENPKLYTKAVASLKNTGAKIVVVDFEPLLELARCLYEGAWVAERYCATRDFLATNPPESSLDETVVNIIKGAVKFDAADAFKFEYKRQGILQKVNLLLKDIDVLCVPTCPLNPKLEEVAQEPVLVNSRQGTWTNFVNLADLAALAVPSGFRSDGLPNGITLIGKKFSDYALLDLAKRFFSVAFPNNSRTYGKFVDRRITVEDELDGPSKDTLNGVKLAVVGAHLKGLPLHWQLQKCNATYLSSPKTSNNYKLYALPKVGPVLKPGLRRVNDGTGSQIQLEVYSVPYDRFGDFIAMVPEPLGIGSVELESGEWVKSFICEEFGYTQQGTVDITKFGGFKPYIEHIQVTEAQKKKPFETVLIANRGEIAVRIMKTLKRMGIKSVAVYSDPDKYSQHVTDADFSVALHGRTAAETYLDIDKIINAAKKTGAQAIIPGYGFLSENADFSDRCSQENIVFVGPSGDAIRKLGLKHSAREIAERAKVPLVPGSGLIKDAKEAKEVAKKLEYPVMVKSTAGGGGIGLQKVDSEDDIERVFETVQHQGKSYFGDAGVFMERFVNNARHVEIQMMGDGFGKAIAIGERDCSLQRRNQKVIEETPAPNLPEATRAKMRAASERLGSLLKYKCAGTVEFIYDEQRDEFYFLEVNARLQVEHPITEMVTGLDLVEWMLRIAANDSPDFDNTKIEVSGASIEARLYAENPVKDFRPSPGQLTSVSFPSWARVDTWVKKGTNVSAEYDPTLAKIIVHGKDRNDAIMKLNQALNETAVYGCITNIDYLRSIASSKMFKEAKVATKVLDSFDYKPCAFEVLAPGANTSVQDYPGRTGYWRIGVPPSGPMDSYSFRLANRVVGNNSKSPALEITLNGPKLLFHTETVIAVSGGTVSCTLNDAQIAQNEPIEVKRGDILSVGKVTVGCRAYLSIRGGIDVPEYLGSRSTFAMGNMGGYNGRILKLGDVLFLNQPELSVSSLPAPDFEPQAAPKSLLPTLSTNKDWKIGVTCGPHGSIDLFKEEYIEQFFNDKWKVHYNSNRFGVRLIGPKPKWARSDGGEAGLHPSNAHDYVYSLGAINFTGDEPVIITCDGPSLGGFVCQAVVAEAELWKVGQLTPGDTIQFVPLSYGVARQLKESQDKSIDNFEEGSLLELSDDKILPKYENPILAVLPKKSDLSPKVTYRQAGDRYILVEYGELEFDLNICYRINRLIHQVERHQTVGIVEMSQGVRSVLIEFDGSKINQKALLKCLIAYESEIQFDKNWNVKSKIFKLPMAFEDSKTLDCVTRYRETIRSEAPWLPNNVDFIADVNDIDRNDVKNMLYSAKFMVLGLGDVFLGSPCAVPLDPRHRYLGTKYNPSRTYTARGVVGIGGMYMCIYNAEGSPGGYQLVGRTITAWDKLVIGDHPIDHPWLLTPFDQVEFYPVTEEELEVIIEDNDNGKFKIDVEESIFDHKEYLAWINENIDSIVAFQEAQGGEKADEFARLIQVANAE
notes: urea amidolyase of Kluyveromyces lactis, residues 1-1741 (stop codon inserted after base pair 5223); lacks the C-terminal BCCP domain; monomer 190 kDa; also called KIUAΔBCCP; source: E. coli BL21 (DE3) Star, purified (Ni-NTA, anion exchange, size exclusion)
In the case of B3, the “stoichiometry N” value in series [2] amounted to 2.

The record behind these values is PMC5770610, “Structure and function of urea amidolyase” (Bioscience Reports, 2018).
